Measurements: PMC10183039

Target: Grp78 (rat (endogenous in hippocampus)) (UniProt P06761)
Experiment: co-IP; primary antibody on Protein A/G magnetic beads in PBS with 0.3% Triton X-100; hippocampal tissue of 3-month-old male rats (WT; APP KO or SNCA KO for comparison) homogenized in RIPA lysis buffer; lysate with beads overnight at 4 °C; four washes with PBST; western blotting

Sequence of Grp78 (rat (endogenous in hippocampus)) (P06761 19-654): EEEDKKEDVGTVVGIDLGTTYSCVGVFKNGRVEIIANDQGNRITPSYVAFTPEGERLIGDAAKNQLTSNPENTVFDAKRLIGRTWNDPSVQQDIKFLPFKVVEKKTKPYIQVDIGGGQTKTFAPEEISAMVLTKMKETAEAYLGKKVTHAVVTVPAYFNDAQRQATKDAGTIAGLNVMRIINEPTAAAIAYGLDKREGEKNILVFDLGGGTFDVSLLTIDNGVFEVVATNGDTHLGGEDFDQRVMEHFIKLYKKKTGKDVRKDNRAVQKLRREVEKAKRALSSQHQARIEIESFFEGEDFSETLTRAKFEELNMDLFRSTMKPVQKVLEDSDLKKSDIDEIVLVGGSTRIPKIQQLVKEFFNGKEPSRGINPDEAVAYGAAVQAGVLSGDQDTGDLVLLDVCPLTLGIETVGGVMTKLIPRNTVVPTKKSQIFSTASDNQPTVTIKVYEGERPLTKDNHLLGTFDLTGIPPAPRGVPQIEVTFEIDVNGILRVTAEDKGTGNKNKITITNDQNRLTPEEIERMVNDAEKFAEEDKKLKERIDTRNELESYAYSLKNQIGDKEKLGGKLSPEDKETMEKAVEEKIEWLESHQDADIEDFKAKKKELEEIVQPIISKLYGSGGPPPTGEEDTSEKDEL
Sequence of IP3R1, P29994 1-2750 (receptor) (P29994 whole entry): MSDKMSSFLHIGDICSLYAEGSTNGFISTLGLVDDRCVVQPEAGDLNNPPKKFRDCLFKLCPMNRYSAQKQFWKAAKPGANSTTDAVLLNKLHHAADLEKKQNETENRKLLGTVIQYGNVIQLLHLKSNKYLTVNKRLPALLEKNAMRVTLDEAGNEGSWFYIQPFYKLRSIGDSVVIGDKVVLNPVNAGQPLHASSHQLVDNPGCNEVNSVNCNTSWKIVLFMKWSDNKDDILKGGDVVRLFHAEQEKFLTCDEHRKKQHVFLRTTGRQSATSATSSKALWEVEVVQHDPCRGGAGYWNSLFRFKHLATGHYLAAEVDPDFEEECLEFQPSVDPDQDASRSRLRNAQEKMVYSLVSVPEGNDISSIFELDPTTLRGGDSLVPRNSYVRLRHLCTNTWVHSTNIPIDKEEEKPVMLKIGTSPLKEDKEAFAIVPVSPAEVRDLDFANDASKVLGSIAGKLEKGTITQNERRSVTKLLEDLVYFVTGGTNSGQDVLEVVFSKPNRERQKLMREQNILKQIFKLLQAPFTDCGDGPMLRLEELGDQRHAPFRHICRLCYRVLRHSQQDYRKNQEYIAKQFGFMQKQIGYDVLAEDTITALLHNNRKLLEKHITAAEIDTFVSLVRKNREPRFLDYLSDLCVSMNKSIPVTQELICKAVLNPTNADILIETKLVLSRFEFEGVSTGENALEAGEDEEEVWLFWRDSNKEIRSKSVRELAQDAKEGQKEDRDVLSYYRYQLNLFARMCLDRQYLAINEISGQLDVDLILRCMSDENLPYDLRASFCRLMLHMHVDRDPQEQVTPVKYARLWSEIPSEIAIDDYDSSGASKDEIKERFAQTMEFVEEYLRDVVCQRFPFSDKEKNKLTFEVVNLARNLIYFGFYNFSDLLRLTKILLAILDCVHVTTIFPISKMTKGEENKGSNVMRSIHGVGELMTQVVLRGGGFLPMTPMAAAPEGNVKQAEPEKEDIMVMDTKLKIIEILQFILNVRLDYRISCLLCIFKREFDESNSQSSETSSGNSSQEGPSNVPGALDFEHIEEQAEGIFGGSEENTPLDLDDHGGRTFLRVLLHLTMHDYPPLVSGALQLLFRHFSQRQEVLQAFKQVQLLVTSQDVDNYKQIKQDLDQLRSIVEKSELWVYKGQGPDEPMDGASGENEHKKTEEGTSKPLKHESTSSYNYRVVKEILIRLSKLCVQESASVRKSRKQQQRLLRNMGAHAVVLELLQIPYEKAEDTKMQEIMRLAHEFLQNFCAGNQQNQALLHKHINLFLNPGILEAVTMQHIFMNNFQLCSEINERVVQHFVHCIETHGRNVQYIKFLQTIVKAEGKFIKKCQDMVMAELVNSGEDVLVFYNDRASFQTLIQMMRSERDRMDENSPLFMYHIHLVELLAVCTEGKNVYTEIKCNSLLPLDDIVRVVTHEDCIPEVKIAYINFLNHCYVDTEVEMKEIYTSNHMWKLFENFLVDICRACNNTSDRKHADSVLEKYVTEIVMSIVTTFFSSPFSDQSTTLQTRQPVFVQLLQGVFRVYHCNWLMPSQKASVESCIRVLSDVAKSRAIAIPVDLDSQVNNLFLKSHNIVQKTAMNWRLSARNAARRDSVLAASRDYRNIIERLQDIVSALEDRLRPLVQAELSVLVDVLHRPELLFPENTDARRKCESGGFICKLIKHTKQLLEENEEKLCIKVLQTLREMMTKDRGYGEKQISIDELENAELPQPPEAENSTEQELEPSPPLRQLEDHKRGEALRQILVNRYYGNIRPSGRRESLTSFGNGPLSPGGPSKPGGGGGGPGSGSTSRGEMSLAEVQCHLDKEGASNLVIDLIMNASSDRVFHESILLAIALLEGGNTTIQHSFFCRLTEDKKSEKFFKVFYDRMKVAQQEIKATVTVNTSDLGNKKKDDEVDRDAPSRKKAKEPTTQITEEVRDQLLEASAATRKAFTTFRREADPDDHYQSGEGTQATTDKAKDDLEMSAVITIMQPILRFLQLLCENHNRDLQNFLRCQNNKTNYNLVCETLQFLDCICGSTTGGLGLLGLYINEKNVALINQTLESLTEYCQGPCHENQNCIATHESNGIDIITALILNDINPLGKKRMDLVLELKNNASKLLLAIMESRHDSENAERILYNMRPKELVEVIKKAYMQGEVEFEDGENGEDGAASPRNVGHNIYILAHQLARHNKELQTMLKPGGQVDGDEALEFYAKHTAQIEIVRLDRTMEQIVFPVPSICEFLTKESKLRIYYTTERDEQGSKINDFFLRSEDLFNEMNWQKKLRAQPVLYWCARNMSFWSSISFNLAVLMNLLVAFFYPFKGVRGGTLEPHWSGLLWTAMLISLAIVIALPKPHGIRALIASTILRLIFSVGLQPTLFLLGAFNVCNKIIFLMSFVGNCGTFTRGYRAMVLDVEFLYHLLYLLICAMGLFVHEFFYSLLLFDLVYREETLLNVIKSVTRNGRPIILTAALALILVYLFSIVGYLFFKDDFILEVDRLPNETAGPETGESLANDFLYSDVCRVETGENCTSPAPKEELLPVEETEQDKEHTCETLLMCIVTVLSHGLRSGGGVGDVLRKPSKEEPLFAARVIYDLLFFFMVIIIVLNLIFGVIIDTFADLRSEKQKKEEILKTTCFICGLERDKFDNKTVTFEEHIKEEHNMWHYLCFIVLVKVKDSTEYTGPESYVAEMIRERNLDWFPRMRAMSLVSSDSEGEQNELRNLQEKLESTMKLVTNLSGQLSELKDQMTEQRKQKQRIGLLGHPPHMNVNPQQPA

fold of IP3R1 co-immunoprecipitated with Grp78, APP KO lysate against WT lysate: 1.49 fold
Substance: IP3R1, P29994 1-2750 (receptor)
